US10293026B2, “Agent for preventing or treating demyelinating disease” (Osaka University, priority 2014, dated 2019)

Experiments:
[1] = tested on: oligodendrocyte precursor cells in demyelination model mice; assay: PDGFRα and Ki67 double-positive cells in spinal cord of demyelination model mice, subcutaneous administration (Example 5); type: in vivo, C57BL/6j mice; details: subcutaneous 500 ng/kg body weight per day for 2 weeks, vs saline with 0.5% BSA, FIG. 5
Experimental: Demyelination model mice were produced by performing a laminectomy at the 11th and 12th thoracic vertebrae in C57BL/6j mice (female, 7-week-old), and topically administering 2 μl of lysophosphatidylcholine diluted to 1% (w/v) in saline solution at a depth of 2 mm into the midline of the spinal column.
An FGF21-containing solution prepared by diluting recombinant FGF21 (R&D) in saline solution was subcutaneously administered for 2 weeks at a dose of 500 ng/kg body weight of FGF21 per day. After 2 weeks, the demyelination model mice were anesthetized and transcardially perfused with saline solution, and spinal cord tissue was harvested. The harvested spinal cord tissue was fixed with a 4% paraformaldehyde solution, which was then replaced with a 30% sucrose solution, and subsequently, frozen thin sections were prepared. The sections were immunostained using an anti-PDGFRα antibody and an anti-Ki67 antibody, and the number of PDGFRα and Ki67 double-positive cells in the sections was counted. As a control, a saline solution containing 0.5% BSA was used, and the number of PDGFRα and Ki67 double-positive cells was counted under the same conditions as those described above. This experiment conducted the study using five or six mice for each group.

[2] = tested on: human oligodendrocyte precursor cells; assay: BrdU uptake by human oligodendrocyte precursor cells (Example 8); type: cell-based; parameters: dose or concentration left out as unconfirmed; details: recombinant human FGF21, human cells, vs saline control; significant difference; FIG. 8
Experimental: Recombinant human FGF21 (R&D) was diluted in saline solution immediately before use to prepare an FGF21-containing solution. Human oligodendrocyte precursor cells (ScienCell) were also prepared.
Initially, the oligodendrocyte precursor cells were seeded in a poly-L-lysinde-coated plastic tissue culture dish (Greiner Bio-One), and cultured in the following medium for 1 day (37° C., 5% CO2). The medium used was DMEM containing 4 mM L-gludamine (Sigma), 1 mM sodium pyruvate (Sigma), 0.1% bovine serum albumin (Sigma), 50 μg/ml apo-Transferrin (Sigma), 5 μg/ml insulin (Sigma), 30 nM sodium selenite (Sigma), 10 nM biotin (Sigma), 10 nM hydrocortisone (Sigma), 10 ng/ml Platelet-Derived Growth Factor-AA (Peprotech), 10 ng/ml basic fibroblast growth factor (Peprotech) 1 (v/v) %, and penicillin/streptomycin (Life Technologies). […] BrdU was subsequently added and cultured at 37° C. for 24 hours, and then the cells were collected; the BrdU uptake was then detected using the cell proliferation ELISA, BrdU colorimetric kit (Roche). As a control, an equivalent amount of saline solution was used instead of the FGF21-containing solution, and the BrdU uptake was measured under the same conditions as those described above. […]

B1: FGF21: Recombinant fibroblast growth factor 21 (R&D); the claimed active ingredient promoting oligodendrocyte precursor cell proliferation (protein, listed as Homo sapiens)
chain: MDSDETGFEHSGLWVSVLAGLLLGACQAHPIPDSSPLLQFGGQVRQRYLYTDDAQQTEAHLEIREDGTVGGAADQSPESLLQLKALKPGVIQILGVKTSRFLCQRPDGALYGSLHFDPEACSFRELLLEDGYNVYQSEAHGLPLHLPGNKSPHRDPAPRGPARFLPLPGLPPALPEPPGILAPQPPDVGSSDPLSMVGPSQGRSPSYAS
[1]
  number of PDGFRα and Ki67 double-positive cells: increased
[2]
  BrdU uptake by the oligodendrocyte precursor cells: markedly increased
